From US20240352069A1, “SYNTHETIC PEPTIDE, AND COSMETIC COMPOSITION OR PHARMACEUTICAL COMPOSITION AND APPLICATION THEREOF” (SHENZHEN WINKEY TECHNOLOGY CO., LTD., priority 2021, published 2024)

How the values were obtained:
[1] = Stability of aqueous solutions (HPLC purity over time); assay type: physicochemical
Protocol: (§1) In Example 29, the HPLC chromatographic separation conditions were as follows: • Chromatographic column: Octadecyl bonded silica gel as filler 4.6*250 mm, 5 m • Mobile phase A: Acetonitrile (containing 0.09% trifluoroacetic acid) • Mobile phase B: 0.1% trifluoroacetic acid • Diluent: water • Flow rate: 1.0 ml/min; • Column temperature: 35° C.; • Detection wavelength: 215 nm; • Injection volume: 10 μl; • Running time: 32 min • Gradient elution table:
(§2) The test solution: Take an appropriate amount of this product and add water to dissolve and dilute to make a solution containing 1 mg per 1 ml.

[2] = Stability of powders at 25° C. and 40° C. (HPLC purity over time)
Protocol: as §1, §2

HaCaT cells [3] = assay: Promoting cell adhesion test (MTT after three-dimensional force); assay type: cell-based, human; settings: 12.5, 25, 50, 100 ppm coated plate, vs normal control group
Protocol: Human keratinocytes (HaCaT) were purchased from the Kunming Cell Bank of the Type Culture Collection Committee of the Chinese Academy of Sciences.
Dissolve with PBS solution.
The cryopreserved HaCaT human cuticle cells were cultured, subcultured at a ratio of 1:2 to about 5 passages, and the cells with better growth were selected as the experimental objects.
The sample to be tested was added to a 96-well plate at a rate of 20 μL/well, and dried overnight in a constant temperature oven at 37° C. […] Set the detection wavelength to 490 nm, the reference wavelength to 630 nm, and use a microplate reader to read the OD value.
By selecting HaCaT cells, plate them in a drug-coated 96-well plate, and after incubation and a period of three-dimensional force, the cells with strong adhesion can be maintained on the 96-well plate. By performing MTT quantitative analysis on the live cells on the plate, that is, the effect of the drug on cell adhesion can be evaluated to determine whether the peptide of the present invention can improve cell elasticity. After three-dimensional force action, the more living cells remained on the 96-well plate, the greater the measured OD value, indicating the stronger the adhesion of the cells.

HaCaT cells [4] = assay: UVB light damage repair experiment (MTT), HaCaT; assay type: cell-based, human; settings: UVB irradiated, 12.5-100 ppm, 24 hours
Protocol: Human keratinocytes (HaCaT) were purchased from the Kunming Cell Bank of the Type Culture Collection Committee of the Chinese Academy of Sciences, and mouse skin fibroblasts (NIH3T3) were purchased from the Shanghai Cell Bank of the Type Culture Collection Committee of the Chinese Academy of Sciences.
Take cells in good exponential growth phase, add 0.25% trypsin digestion solution, digest to make adherent cells fall off, count 1×10^5-4×10^5 cells/mL, and make cell suspension.
Cells were seeded into 96-well plates at 10,000 cells/well, and the UVB photodamage model was established when the cells reached about 80% confluent. […]
After 24 hours, add 22 μL of 5 mg/mL MTT to each well, place in an incubator and incubate for 4 hours, discard the original solution, and add 150 μL/well of DMSO. After 5 minutes, use a microplate reader to read the reference OD values at 490 nm and 630 nm wavelengths.
By establishing a UVB light-damaged cell model, administering 24 hours after ultraviolet light irradiation, and using the MTT method to detect cell proliferation activity, the ability of the peptide of the present invention to repair light-damaged cells was evaluated.

H-Ala-Pro-Phe-Arg-Met-Gly-Ile-Met-Thr-Thr-Asn-OH (H-APFRMGIMTTN-OH) [Peptide (2)]
aqueous solution (purity) ([1]; Day 8 at room temperature): 99.122%
aqueous solution (purity) ([1]; Day 18 at room temperature): 98.045%
aqueous solution (purity) ([1]; Day 18 at room temperature, listed as peptide (2)): did not change significantly
aqueous solution (purity) ([1]; Solution, Day 0): 99.291%
powder (purity) ([2]; 25° C., Day 20): 99.146%
powder (purity) ([2]; 40° C., Day 20, listed as Peptide(2)): 98.583%
powder (purity) ([2]; 40° C., Day 20, listed as peptide (2)): remained unchanged
powder (purity) ([2]; powder, Day 0): 99.291%
adhesion ability of HaCaT cells (HaCaT cells [3]): could improve the adhesion ability of HaCaT cells
effect on improving activity of photodamaged HaCaT cells compared among peptides (1)-(5) (HaCaT cells [4]): better effect on improving cell activity
